Sequences and labels used below:
B1: PKU71375.1: Type-III PKS enzyme from Dendrobium catenatum (protein, listed as Dendrobium catenatum)
chain: MAQRADGSASILAIGKATPENFLEQSTYPDYFFRVTNSQHLIDLKKKFQRICDKTSIRKRHFILNEELITKNPCLSKFMENSINTRLEIYAKEIQKLAVEAATKAIQEWGQPKSCITHLIFSTLSDPGLPCGDYHLLQTLGLSPNIERVVILQHGCFAGGTMLRLAKCLAESHKGARVLVVSAETTTMLFRGPSEEHQEDLITQALFADGASALIVGVNPNETIGERASFVITSASQVILPNSSHAITGHLSEGGIKATIHKDVPNLLSNNIGKILEEAFTPLGISNWNSIFWVVHPGGRAILDQLEERVGLKPEKLMISRHVLAEYGNLMGVCVHFVLDEMRKRSIDEGNTTTGEGLEWGVLLGFGLGVTIETIVLQSVSL
modifications: (1)..(382) PKU71375.1
B2: AFU07710.1: Type-III PKS enzyme from Paphiopedilum × areeanum (protein)
chain: MPGLENRKKVEVPKRAKDLATIMAIGRANPPNAVEQSTFPDFYFRVTNNEHLVGLMKKFQCICEKTVIRRRHFVWDEEILNANPCLRTHMEPSFNVRQKIAVAEIPKMGAEAASRAIKEWGQPKSRITYLIFYTMSGMDLPVTDYKLTRILNLNLNVYQVMLYQWDCIAGGTILCWAKCSAESQKGTRVLVVSSETTTVLVRAPSEDYHDDLVTQDLFGDGASALIVGADPDEEAKERPIFTIVSTSQVVLPDSDGVIGGHLSEGGLMATLHRDVALIISKNVSKCLEEAFVTLGISDWNSIFWAPHPCRRAILDQVEERVGLKPEKLWASRHVLAEFGNMTSVCVHFVLDEIHNRSTQGKTTTGEGFDWGVLFGFGPGLIVETVILRSVPLN
modifications: Paphiopedilum x areeanum; (1)..(393) AFU07710.1
B3: AAZ32093.1: Type-III PKS enzyme from Oncidium Gower Ramsey (protein)
chain: MPSLESIKNAPKTDGFASILAIGSANPENIIEQSTYPDFFFHLTNSEHLVDLKNKFQRICDKTAIRKRHFAWNEELLTANPCLRTFMDNSLNVRQEFVIREIPKLGAQAATKAIQEWGQSKSRITHLIFSTTSGMDLPGADYQLTQILGLNPNIERVMLYHQGCFAGGTTLRLTKSLAESRKGARVLVVCAETTSALTFRAPSEEHQDDLVVQALFGDGASALIVGADPDEAADERASFIIVSTSQVLLSDSAGAIGGHLSEGGLIVTLHRDVPQIVSKNVGNCLKEAFTPLGISDWNSIFWVPHPGGPAILDQIEERVGLNPEKLIISRHMLAEYGNMLGVSVHFALDEMRKRSAKEGKATTGEGLDWGVLLGIGPGITVETVVLHSVRI
modifications: Oncidium hybrid cultivar; (1)..(391) AAZ32093.1
notes: Type-III PKS enzyme from Oncidium Gower Ramsey
B4: AFU07709.1: Type-III PKS enzyme from Paphiopedilum armeniacum (protein, listed as Paphiopedilum armeniacum)
chain: MPGLENRKKVEAPKREEGLATIMAIGRANPPNAMEQSTFPDFYFRVTNSEHMVGLKKKFQRICEKTAIRRRHFVWNEEILNANPCMCTHMEPSLNVGQKIVVAEIPKLGAEAASRAIEVWGQPKSRITHLIFCTTSSMDLLGADYKITRILGLNLNVQRGMLYQQGCFAGGTVLRLAKCFTESQKGTRVLVVCSENAIILVRASSEDYQDDLVTQALFADGASALIVGEDPDEEAKERPIFTIISTTHVILPDSDGAIGGHLGEGGLMATLQRDVPFIISKNVNTCLEESFAPLVISDWNSVFWAPHSGGRAILDQVEERAGLKPEKLWASRHVLAKYGNMSSVCVHFVLDEIRKRSTKEGKTTTGEGFDWGVLFGFGLGLTVETVILRSVPLN
modifications: (1)..(394) AFU07709.1
B5: XP_020572025.1: Type-III PKS enzyme from Phalaenopsis equestris (protein, listed as Phalaenopsis equestris)
chain: MPSFPSVKKAPTAEGFASILAIGRANPENFIEQSAYPDFFFRVTNSEHLVDLKKKFQRICDKTAIRKRHFVWNEEFLTANPCFSTFMDKSLNVRQEVAIREIPKLGAKAATKAIEDWGQPKSRITHLIFCTTSGMDLPGADYQLTQILGLNPNVERVMLYQQGCFAGGTTLRLAKCLAESRKGARVLVVCAETTTVLFRAPSEEHQDDLVTQALFADGASAVIAVIVGADPDEAADERASFVIVSASQVLLPDSAGAIGGHVSEGGLLATLHRDVPQIVSKNVGKCLEEAFTPFGISDWNSIFWVPHPGGRAILDQVEERVGLKPEKLSVSRHVLAEYGNMSSVCVHFALDEMRKRSAKEGKATTGEGLEWGVLFGFGPGLTVETVVLQSVPI
modifications: (1)..(393) XP_020572025.1
B6: PKA56805.1: Type-III PKS enzyme from Apostasia shenzhenica (protein, listed as Apostasia shenzhenica)
chain: MPGVEAVAQNISPARSDGLAAILAIGRANPPNIVEQSSFADLYFRLHNSEHLVDLKKKLQRICDRTAIRKRHFVWDEELLMANPCLRTVTEPSLNARQKVAITEIPKLGAAAATNAIAEWGRPKSDITHLIFCTTSGMDLPGADYQLIRLLGLNDNIQRIMLYQQGCFAGGTVLRLAKVLAESRRSARVLIVCAETTTVLVRSPSVENQDDLVTQALFADGASALIVGADPNAGEKPVFSVFSTSQVLLPDSDGAIGGHVGENGLTATLHRDVPAVISKNVGKCLEEAFTPLGISDWNSIFWAAHPGGRAILDQVEERVGLKPEKMWASRHVLAEYGNMSSVSVHFALDEIRRRSAKEGKATTGDGFEWGVLFGFGPGLTVETVVLRSAPISA
modifications: (1)..(393) PKA56805.1
B7: A0A0D9WZ61: Type-III PKS enzyme from Leersia perrieri (protein, listed as Leersia perrieri)
chain: MAPVPANGAATATATTQEIRRAQRADGPATVLAIGTANPETYVSQDEYADYYFRITKSEHLPELKDKLRRICNKSGIDKRFMYVNEDVMEAHPEFADRNQSSLNARVEIASKAVPELAAAASAKAIAEWGRPATDITHLIFSTYSGVKAPSGDRLLASLLGLRPNVSRTTLSLHGCYGGGRALQLAKELAENNRGARVLVACAEMTLIAFYGPEVGCNDTIVGQALFGDGSGAVIVGADPVDAAGERPLFEMAFASQTTVPDSEGAITMQHTKGGMDYHIGSGIPEMLAGNIERCLADAFDSIGVAADWKDLFWAVHPGGRRILDLIEEALGLDNGAMASRQVLREFGNMSGTTVIFVLNELRRRFKANGAEGADWGALMAFGPGVTIETMLLRVAAGLKGN
modifications: (1)..(402) ProtKB - A0A0D9WZ61
B8: CAA10514.1: Type-III PKS enzyme from Bromheadia finlaysoniana (protein, listed as Bromheadia finlaysoniana)
chain: MASQVSPPSINMAPKADGFASILAIGRANPKNFIEQSTFPDFFFRVTNTEHMVDLKKKFQRICDKTSIRKRHFIWNEELLTANPSLCTFMGNSLNLRHEVAVREIPKLGAEAATKAIQEWGQPKSFITHLVFCTTSGMDLPGADYQLTQILGLNLDIERVMLHQQGCFLGGTTLRLAKYLAESRKGARVLVVCAETTTEFFRAPSEEHQEDLVTQSLFGDGASALIVGADPHEGARERASFILVSSSQVLLANSAHAITGHVSEGGIKATLHRDVPQIISNNLGKCLEEAFTPLGISDWNSIFWVLHPGGRAILDQVEEKMGLEPEKLLISRHVLLEYGNMSSVCVHFALDEMRKRSSNEGKATTGEGLEWGVLFGFGPGLTIETVVLRSVSIS
modifications: (1)..(394) CAA10514.1

In one experiment the test system is E. coli derivative strain which overexpressed an acyl-CoA synthetase (fadD) gene and expressed an olivetolic acid cyclase (OAC) from Cannabis sativa. Put plainly: OL, OLA and PDAL production in E. coli from plasmid-expressed Type-III PKS genes. It is filed as cell-based. The settings on record: OL + OLA + PDAL; gene on plasmid. The procedure: To test olivetolic acid production in E. coli, strains comprising a putative OLS gene and an OAC gene from C. sativa were inoculated in multi-well plates containing LB supplemented with 1% glucose and appropriate concentrations of antibiotics. After 6 hours of cultivation at 32° C., the cells were transferred with a 10% inoculum to a P-limited seed medium (see Table 2) and cultivated for ˜18 hours at 32° ° C. to reach an OD of 2.0-4.0. The cultures were transferred with a 20% inoculum in a P-minimal medium (see Table 3) supplemented with 2% glucose and appropriate concentrations of antibiotics. After 3 hours of cultivation at 32° C., the culture was spiked with 4 mM hexanoic acid (˜OD 1.5-2.0). The resulting cultures were then harvested at either 3 hours or 21 hours post hexanoic acid spike; a final OD was taken. 300 μL of butyl acetate containing 500 mg/L undecanoic acid was added to each multi-well plate. The plates were then vortexed for 30 minutes at 1500 rpm and centrifuged for 10 minutes at 4500 rpm. 50 μL of organic layer was transferred to a 96-well plate and derivatized with 50 μL of N,O-Bis(trimethylsilyl)trifluoroacetamide (BSTFA). The plate was then incubated at room temperature for 2 hours to allow for complete derivatization. The samples were then run on GC-FID for analytical quantification of olivetolic acid (OLA), olivetol (OL), PDAL, and hexanoic acid.
Olivetol, PDAL, OLA, HTAL, CBGA and combinations thereof were analyzed by LCMS or LCMS/MS methods using C18 reversed phase chromatography coupled to either EXACTIVE™ (ThermoFisher) or QTRAP® 4500 (Sciex) mass spectrometers.
For reversed phase LCMS, compounds were identified by their LC retention times and MRM transitions specific to the compounds. LCMS/MS analysis was conducted on a Shimadzu UHPLC system coupled with AB Sciex QTRAP 4500 mass spectrometer. Agilent Eclipse XDB C18 column (4.6×3.0 mm, 1.8 μm) was used with a 1-min gradient elution at 1 mL/min using water containing 0.1% ammonia acetate as mobile phase A and 90% methanol containing 0.1% ammonia acetate as mobile phase B. The LC column temperature was maintained at 45° C. Negative ionization mode was used for all the analytes.
The genes for 20 Type-III PKS enzymes were codon optimized for E. coli and cloned under control of a constitutive promoter into an expression vector (p15a replicon, carbenicillin resistance marker). The 20 plasmids were transformed into an E. coli derivative strain which overexpressed an acyl-CoA synthetase (fadD) gene and expressed an olivetolic acid cyclase (OAC) from Cannabis sativa.
The in vivo assay procedure and analytical methods were performed as described above.
For the molecule B1, the Total was found to be 0 µM.

Regarding B2, the Total is 0 µM.

As for B3, the Total amounted to 16 µM.

As to B4, the Total is 0 µM.

Regarding B5, the Total was 0 µM.

Take B6: the Total came to 37 µM.

Turning to B7, the Total was determined as 34 µM.

With B8, the Total was 61 µM.

The same experiment, now with this note: gene on plasmid, constitutive promoter; culture spiked with 4 mM hexanoic acid.
In the case of B1, the OL came to 0 µM, the OLA is 0 µM and the PDAL worked out at 0 µM.

For B2, the OL was 0 µM, the OLA stood at 0 µM and the PDAL was determined as 0 µM.

As for B3, the OL was determined as 16 µM, the OLA was 0 µM and the PDAL turned out to be 0 µM.

For B4, the OL was found to be 0 µM, the OLA stood at 0 µM and the PDAL amounted to 0 µM.

In the case of B5, the OL turned out to be 0 µM, the OLA stood at 0 µM and the PDAL came to 0 µM.

In the case of B6, the OL stood at 27 µM, the OLA was 10 µM and the PDAL amounted to 0 µM.

In the case of B7, the OL was 34 µM, the OLA is 0 µM and the PDAL amounted to 0 µM.

For B8, the OL came out at 0 µM, the OLA worked out at 0 µM and the PDAL worked out at 61 µM.
